Measured values reported in article PMC10683472, “Deep Learning-Driven Library Design for the De Novo Discovery of Bioactive Thiopeptides” (ACS Central Science, 2023).
Where no end group is shown, it is not given here.

Molecular target: T1, TLR10 (Homo sapiens, UniProt Q9BXR5)
T1 sequence (Q9BXR5 20-576): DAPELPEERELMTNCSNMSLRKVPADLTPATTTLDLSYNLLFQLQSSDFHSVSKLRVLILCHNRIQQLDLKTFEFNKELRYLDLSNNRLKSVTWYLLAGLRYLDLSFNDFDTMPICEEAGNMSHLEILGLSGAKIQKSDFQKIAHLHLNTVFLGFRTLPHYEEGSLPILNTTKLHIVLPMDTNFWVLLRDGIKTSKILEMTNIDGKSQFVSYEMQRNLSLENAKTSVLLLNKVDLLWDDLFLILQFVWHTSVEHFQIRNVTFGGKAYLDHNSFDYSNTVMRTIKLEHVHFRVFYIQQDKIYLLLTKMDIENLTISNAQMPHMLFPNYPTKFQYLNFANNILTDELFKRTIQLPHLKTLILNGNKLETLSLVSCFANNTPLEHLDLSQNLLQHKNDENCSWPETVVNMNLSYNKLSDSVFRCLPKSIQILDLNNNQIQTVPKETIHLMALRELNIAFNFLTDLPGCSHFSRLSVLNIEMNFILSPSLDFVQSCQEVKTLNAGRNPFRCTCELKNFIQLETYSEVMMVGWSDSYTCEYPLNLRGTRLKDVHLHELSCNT
Assay: mRNA display affinity selection against TLR10, NGS abundance
Type: binding
Set-up: Chimera protein (extracellular domain, amino acid 20-576;); Fc (chimera); purchased R&D system #6619-TR-050
Details: Top100 selection hits, NGS

| Sequence | Library fraction (TLR10 selection pulldown (-)) | Raw reads (TLR10 selection pulldown (-)) | Library fraction (TLR10 selection pulldown (+)) | Raw reads (TLR10 selection pulldown (+)) |
| --- | --- | --- | --- | --- |
| AEIHAWGLRI | 0.00117 | 139 |  |  |
| AFQRRDDFRWVI |  |  | 0.00019 | 19 |
| AINFELTNKIAF | 0.013 | 1556 | 0.008 | 804 |
| AKLIYRTQGIMG |  |  | 0.00211 | 206 |
| ALELKHVVVV |  |  | 0.00049 | 48 |
| ALLIKQTNMLYC | 0.018 | 2188 | 0.023 | 2215 |
| ALRFPHLGMMAF |  |  | 0.00026 | 25 |
| AMKLSARYIAF | 0.00072 | 86 |  |  |
| AQMYPIQNKIAF | 0.00063 | 75 | 0.00064 | 62 |
| ASFVIGQLLVN | 0.00055 | 66 |  |  |
| ASINRYGGNAAS | 0.042 | 4957 | 0.077 | 7526 |
| AVEFSNAVVM | 0.00055 | 66 |  |  |
| AVIVWAKQGIKG |  |  | 0.0006 | 58 |
| AVRNKYGGNAAS | 0.012 | 1475 | 0.054 | 5293 |
| CESCCYVIDFEF | 0.00343 | 409 |  |  |
| CIIFVRQNKCAF | 0.00053 | 63 |  |  |
| CLGISNRIVVV |  |  | 0.00017 | 17 |
| CVFFPHLNKIAL | 0.022 | 2623 |  |  |
| GDLRGNVCMWL |  |  | 0.00021 | 20 |
| GLVINKRWYVHL | 0.00054 | 64 | 0.00058 | 57 |
| GVGNRYGGHAGT | 0.0009 | 107 |  |  |

| Sequence | Library fraction (TLR10 selection pulldown (-)) | Raw reads (TLR10 selection pulldown (-)) | Library fraction (TLR10 selection pulldown (+)) | Raw reads (TLR10 selection pulldown (+)) |
| --- | --- | --- | --- | --- |
| GYAVGKLLIRV |  |  | 0.00026 | 25 |
| IGKTYVKSC |  |  | 0.00027 | 26 |
| IGLVRIKSS | 0.00155 | 185 | 0.0012 | 117 |
| IGLVRVVSS | 0.00658 | 785 |  |  |
| IGNTYVASS |  |  | 0.00022 | 21 |
| IGNVCIRSS | 0.0008 | 96 |  |  |
| IGNVCVVSS | 0.004 | 475 | 0.007 | 660 |
| IGRLFVKSS | 0.00284 | 339 |  |  |
| IGRLYIKSS | 0.00136 | 162 | 0.003 | 304 |
| IGRVCIRSS | 0.00147 | 175 |  |  |
| IGRVMIKSS | 0.007 | 870 | 0.008 | 778 |
| IGRVWVQSS | 0.002 | 250 |  |  |
| IGSVFIKSS | 0.003 | 375 | 0.00365 | 356 |
| MIRMDRLRVL |  |  | 0.00023 | 22 |
| RIETRCYVLH | 0.0006 | 72 |  |  |
| RILFARQNLAAF | 0.00283 | 338 |  |  |
| RMSLNTRYIAF |  |  | 0.00031 | 30 |
| SICFASQRLLAF | 0.00149 | 178 |  |  |
| SICFPLQHKCAY | 0.00144 | 172 |  |  |
| SIEFRRMRAIAY | 0.00067 | 80 |  |  |
| SIEGMHVVIV |  |  | 0.00022 | 21 |

Other lines, results leading:

| Library fraction (TLR10 selection pulldown (-)) | Raw reads (TLR10 selection pulldown (-)) | Library fraction (TLR10 selection pulldown (+)) | Raw reads (TLR10 selection pulldown (+)) | Sequence |
| --- | --- | --- | --- | --- |
|  |  | 0.00022 | 21 | AIRFSNVLAL |
| 0.00153 | 182 |  |  | AIYNRYGGNIAS |
|  |  | 0.00018 | 18 | AIYYSRLNKVAF |
| 0.00278 | 332 |  |  | ALKFELLRKVAF |
| 0.00162 | 193 |  |  | ALVTQHVNVY |
| 0.00047 | 56 |  |  | ANYHGNVPWSC |
| 0.00067 | 80 |  |  | ATIDLQLRRLTL |
| 0.00093 | 111 | 0.00163 | 159 | AVEFRLQRAIAY |
| 0.00554 | 661 |  |  | CITFQLTRKVAF (not fully specified) |
|  |  | 0.00022 | 21 | CLPFPLQMRIAY |
| 0.004 | 470 | 0.00053 | 52 | CMIFHTQLKIAF |
| 0.00142 | 169 |  |  | CMSFYLQRKIAI |
| 0.016 | 1871 | 0.006 | 614 | CNPYRGNIGW |
| 0.00152 | 181 |  |  | CVHFCWQRKLAY |
|  |  | 0.00056 | 55 | CVLVNNRYLVH |
|  |  | 0.00018 | 18 | FRGVLIRSS |
|  |  | 0.0007 | 68 | FVLNGRYLVM |
| 0.00272 | 324 | 0.00224 | 218 | GCLHGNVPVYY |

| Library fraction (TLR10 selection pulldown (-)) | Raw reads (TLR10 selection pulldown (-)) | Library fraction (TLR10 selection pulldown (+)) | Raw reads (TLR10 selection pulldown (+)) | Sequence |
| --- | --- | --- | --- | --- |
| 0.002 | 232 |  |  | GLLHGNVPTWI |
| 0.00739 | 882 | 0.023 | 2231 | GTGLNRYGGINY |
|  |  | 0.00024 | 23 | GVRLNGVIFVSV |
|  |  | 0.00028 | 27 | ICFVYVRSS |
| 0.00089 | 106 |  |  | IGKTYVASS |
| 0.00092 | 110 |  |  | IGKVYVHSS |
|  |  | 0.00075 | 73 | LGNVYIRSS |
|  |  | 0.00019 | 19 | MMSRGMRWVL |
|  |  | 0.00022 | 21 | MNPYSGNIVV |
| 0.00141 | 168 | 0.00074 | 72 | RIETARLVIL |
|  |  | 0.00041 | 40 | RILFPLQNSIAF |
| 0.00358 | 427 |  |  | RMMFHLLNQIAY |
| 0.00067 | 80 | 0.00557 | 543 | RNPYSGNIAI |
| 0.00043 | 51 |  |  | RSPIPSWG |
|  |  | 0.00034 | 33 | SFMFFSQRKLAF |
| 0.0006 | 71 |  |  | SFTFALQRRIAY |
| 0.00125 | 149 |  |  | SHYFAFQKKLAF |
